Where a chain is given by its changes, count along the chain named. Names may count otherwise.
B1: Bis-40E9-L2H3 (bispecific antibody, human IgG1, kappa, L234A L235A)
heavy 1: not shown
heavy 2: EVQLVQSGAEVKKPGASVKVSCKASGYTFTSYVIHWVRQAPGQGLEWMGYFNPYNDGTKYNEEFKGRVTLTSDKSTSTAYMELRSLRSDDTAVYYCARGGVRRYFDVWGQGTTVTVSSASTKGPSVFPLAPSSKSTSGGTAALGCLVKDYFPEPVTVSWNSGALTSGVHTFPAVLQSSGLYSLSSVVTVPSSSLGTQTYICNVNHKPSNTKVDKKVEPKSCGGGGSGGGGSEVQLVQSGAEVKKPGSSVKVSCKASGYTFSSYVIHWVRQAPGQCLEWMGYINPYNDVIKYNEKFKGRVTLTSDKSTSTAYMELSSLRSEDTAVYYCARDSYYSYDGFAYWGQGTLVTVSSGGGGSGGGGSGGGGSGGGGSEIVLTQSPDFQSVTPKEKVTITCSASSSVSYMHWYQQKPDQSPKRLIYDTSKLASGVPSRFSGSGSGTDFTLTINSLEAEDAATYYCQQWSSNPPTFGCGTKVEIKGGGGSGGGGSDKTHTCPPCPAPEAAGGPSVFLFPPKPKDTLMISRTPEVTCVVVDVSHEDPEVKFNWYVDGVEVHNAKTKPREEQYNSTYRVVSVLTVLHQDWLNGKEYKCKVSNKALPAPIEKTISKAKGQPREPQVCTLPPSREEMTKNQVSLSCAVKGFYPSDIAVEWESNGQPENNYKTTPPVLDSDGSFFLVSKLTVDKSRWQQGNVFSCSVMHEALHNHYTQKSLSLSPGK
light: DIQMTQSPSSLSASVGDRVTITCRASQDIGSNLNWLQQKPGKAIKRLIYATFGLDSGVPSRFSGSRSGTDFTLTISSLQPEDFATYYCQQYASFPYTFGGGTKVEIKRTVAAPSVFIFPPSDEQLKSGTASVVCLLNNFYPREAKVQWKVDNALQSGNSQESVTEQDSKDSTYSLSSTLTLSKADYEKHKVYACEVTHQGLSSPVTKSFNRGEC
notes: Fab-scFv-Fab, LALA; also called humanized 2+1 bispecific antibody with scFv 40E9-L2H3
B2: Bis-40E9-L2H16 (bispecific antibody)
heavy 1: not shown
heavy 2: B1 heavy 2 with S262D
light: B1 light
notes: Fab-scFv-Fab format with LALA mutations; copies: 1 + 1 + 2
B3: Bis-40E9-L2H14 (bispecific antibody)
heavy 1: not shown
heavy 2: B1 heavy 2 with D330E
light: B1 light
notes: as for B2
B4: Bis-40E9-L2H1 (bispecific antibody)
heavy: EVQLVQSGAEVKKPGASVKVSCKASGYTFTSYVIHWVRQAPGQGLEWMGYFNPYNDGTKYNEEFKGRVTLTSDKSTSTAYMELRSLRSDDTAVYYCARGGVRRYFDVWGQGTTVTVSS
heavy (part 1 of 2): B4 heavy
heavy (part 2 of 2): GGGGSGGGGSEVQLVQSGAEVKKPGSSVKVSCKASGGTFSSYVIHWVRQAPGQCLEWMGYINPYNDVIKYNEKFKGRVTITADKSTSTAYMELSSLRSEDTAVYYCARDSYYSYDGFAYWGQGTLVTVSSGGGGSGGGGSGGGGSGGGGSEIVLTQSPDFQSVTPKEKVTITCSASSSVSYMHWYQQKPDQSPKRLIYDTSKLASGVPSRFSGSGSGTDFTLTINSLEAEDAATYYCQQWSSNPPTFGCGTKVEIKGGGGSGGGGS
light: DIQMTQSPSSLSASVGDRVTITCRASQDIGSNLNWLQQKPGKAIKRLIYATFGLDSGVPSRFSGSRSGTDFTLTISSLQPEDFATYYCQQYASFPYTFGGGTKVEIK
notes: Fab-scFv-Fab (2+1), LALA; not shown: CH1; CL; CH2-CH3 with L234A, L235A; heavy chain constant region with L234A, L235A
B5: Bis-40E9-L2H4 (bispecific antibody)
heavy: B4 heavy
heavy (part 1 of 2): B4 heavy
heavy (part 2 of 2): B4 heavy (part 2 of 2) with G37Y, M58I, V78A, I80L, A82S
light: B4 light
notes: as for B4
B6: Bis-40E9-L2H3-G106A.H (bispecific antibody)
heavy: B4 heavy
heavy (part 1 of 2): B4 heavy
heavy (part 2 of 2): B4 heavy (part 2 of 2) with G37Y, I80L, A82S, G116A
light: B4 light
notes: as for B4
B7: Bis-40E9-L2H3-D99E.H (bispecific antibody)
heavy: B4 heavy
heavy (part 1 of 2): B4 heavy
heavy (part 2 of 2): B4 heavy (part 2 of 2) with G37Y, I80L, A82S, D109E
light: B4 light
notes: as for B4

Assays:
[1] = target: T1, GPRC5D (G-protein coupled receptor family C group 5 member D), human, on multiple myeloma cell lines (human, UniProt Q9NZD1 1-345); experiment: cell-based or functional assay
T1 sequence (Q9NZD1 whole entry): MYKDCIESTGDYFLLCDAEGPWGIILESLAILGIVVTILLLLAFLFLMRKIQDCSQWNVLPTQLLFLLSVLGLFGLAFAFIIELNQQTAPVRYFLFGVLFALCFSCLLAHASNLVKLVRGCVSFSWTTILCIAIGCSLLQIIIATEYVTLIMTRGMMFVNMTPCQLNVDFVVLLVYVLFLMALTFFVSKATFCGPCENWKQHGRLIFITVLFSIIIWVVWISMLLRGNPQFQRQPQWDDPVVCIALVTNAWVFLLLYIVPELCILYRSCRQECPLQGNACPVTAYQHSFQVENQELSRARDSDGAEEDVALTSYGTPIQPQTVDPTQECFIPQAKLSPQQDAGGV

[2] = target: T2, CD3 (Cluster of Differentiation 3 protein), human, on T cells / Jurkat cells (human, UniProt P07766 23-207; P04234 22-171; P09693 23-182); experiment: FACS, Jurkat cells, antibody at 50 µg/ml
T2 construct: whole, on cells; part of the TCR-CD3 complex; also called human CD3
T2 sequence (P07766 23-207, chain 1 of 3): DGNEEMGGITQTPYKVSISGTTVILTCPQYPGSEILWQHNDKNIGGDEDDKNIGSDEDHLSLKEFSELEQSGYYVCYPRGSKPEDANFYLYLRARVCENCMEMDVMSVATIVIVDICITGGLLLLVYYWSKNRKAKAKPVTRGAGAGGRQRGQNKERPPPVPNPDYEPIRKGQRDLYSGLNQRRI
T2 sequence (P04234 22-171, chain 2 of 3): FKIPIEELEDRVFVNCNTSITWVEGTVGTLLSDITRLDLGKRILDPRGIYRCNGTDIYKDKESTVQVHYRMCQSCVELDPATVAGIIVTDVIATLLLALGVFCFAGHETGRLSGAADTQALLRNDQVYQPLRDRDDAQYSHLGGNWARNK
T2 sequence (P09693 23-182, chain 3 of 3): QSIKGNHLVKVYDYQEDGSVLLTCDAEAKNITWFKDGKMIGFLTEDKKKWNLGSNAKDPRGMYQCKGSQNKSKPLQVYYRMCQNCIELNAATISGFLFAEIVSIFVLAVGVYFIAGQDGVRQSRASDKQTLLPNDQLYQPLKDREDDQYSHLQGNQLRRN
Protocol: (§1) The binding affinities of the generated humanized Fab-scFv-Fab bispecific antibodies were determined by FACS analysis. […] (a) Jurkat cells were washed by Staining Buffer (PBS+1% BSA) in round bottom 96-well plate. [0833] (b) Antibody dilutions and cells were added to each well, incubated at 4 degrees for 1 hour. [0834] (c) Cells were spined down at 300 g for 3 minutes, and the supernatants were discarded. [0835] (d) Cells were washed with Staining Buffer. […] (e) Step (d) was repeated and the cells were incubated for 0.5 hours at 4 degrees with secondary antibody in Staining Buffer. [0837] (f) After incubation, step (d)-(e) were repeated. […] (g) Staining Buffer was added and fluorescence signals were recorded by flow cytometry.

[3] = target: T1, GPRC5D (G-protein coupled receptor …); experiment: cell-based or functional assay; remark: listed apart in the source
CD3 on Jurkat cells = target: T3, CD3 on Jurkat cells (UniProt P07766 23-207; P04234 22-171; P09693 23-182); experiment: FACS on Jurkat cells
T3 construct: whole, on cells; On the cell, CD3 stands in the TCR-CD3 complex; also called cluster of differentiation 3
T3 sequence (P07766 23-207, chain 1 of 3): as the sequence (P07766 23-207, chain 1 of 3) above
T3 sequence (P04234 22-171, chain 2 of 3): as the sequence (P04234 22-171, chain 2 of 3) above
T3 sequence (P09693 23-182, chain 3 of 3): as the sequence (P09693 23-182, chain 3 of 3) above
Protocol: as §1
The binding affinities of the generated humanized Fab-scFv-Fab bispecific antibodies were determined by FACS analysis. The protocol for FACS analysis is identical to that described in Example 3.2, except that different test antibodies were used.

GPRC5D on MM.1S cells [4] = target: T4, GPRC5D on MM.1S cells (human, UniProt Q9NZD1 1-345); experiment: FACS on MM.1S cells
T4 construct: whole, on cells; MM.1S is called a GPRC5D positive expressed cell line and human multiple myeloma cells; also called G-protein coupled receptor family C group 5 member D
T4 sequence (Q9NZD1 whole entry): as the sequence (Q9NZD1 whole entry) above
Protocol: To evaluate the binding affinity of the generated chimeric bispecific antibody to T cells, the isolated CD3⁺ T cells were stained by antibodies and the binding affinity was determined by FACS analysis. The protocol of FACS analysis is described as follows: [0785] (a) CD3⁺ T cells were isolated from normal donors. [0786] (b) The isolated CD3⁺ T cells were washed by Staining Buffer (PBS+1% BSA) in round bottom 96-well plate. […] (c) Antibody dilutions were added to each well and mixed with the CD3+ T cells, incubated at 4 degrees for 1 hour. […] (d) Cells were spined at 300 g for 3 minutes, then the supernatants were discarded. [0789] (e) Cells were washed with Staining Buffer. [0790] (f) Step (d) was repeated, and the cells were incubated with secondary antibody in Staining Buffer for 0.5 hours at 4 degrees. [0791] (g) After incubation, step (d)-(e) were repeated. [0792] (h) Cells were resuspended in Staining Buffer and fluorescence signals were recorded by flow cytometry.
The binding affinities of the generated humanized Fab-scFv-Fab bispecific antibodies to MM.1S were evaluated by FACS analysis. The protocol for FACS analysis is identical to that described in Example 1.2, except that MM.1S were used in this example.

GPRC5D on MM.1S cells [5] = target: T4, GPRC5D on MM.1S cells; experiment: cell-based or functional assay
GPRC5D on MM.1S cells [6] = target: T4, GPRC5D on MM.1S cells; experiment: cell-based or functional assay; remark: listed apart in the source

Row | Binder | IC50 (nM), T-Cell Dependent Cytotoxicity, MM.1S [1] [nM] | IC50 (nM), T-Cell Dependent Cytotoxicity, MOLP-8 [1] [nM] | IC50 (nM), T-Cell Dependent Cytotoxicity, RPMI8226 [1] [nM] | Top (%), T-Cell Dependent Cytotoxicity, MM.1S [1] [%] | Top (%), T-Cell Dependent Cytotoxicity, MOLP-8 [1] [%] | Top (%), T-Cell Dependent Cytotoxicity, RPMI8226 [1] [%] | MFI (50 µg/ml) [2] [MFI] | EC50 (nM), luciferase assay, MM.1S [3] [nM] | Top (RLU), luciferase assay, MM.1S [3] [RLU] | Top (RLU), luciferase assay, MOLP-8 [3] [RLU] | EC50 (nM), luciferase assay, L363 [3] [nM] | EC50 (nM), luciferase assay, MOLP-8 [3] [nM] | EC50 (nM), luciferase assay, RPMI8226 [3] [nM] | Top (RLU), luciferase assay, L363 [3] [RLU] | Top (RLU), luciferase assay, RPMI8226 [3] [RLU] | further results
1 | B1 | 0.00571 | 0.00166 | 0.06 | 66.8 | 71.9 | 11.5 | 341 | 0.0898 | 1940 | 221 |  |  |  |  |  | 
2 | B2 |  |  |  |  |  |  |  |  |  |  |  |  |  |  |  | Ratio of EC50 (relative to ATG-Bis-40E9) (CD3 on Jurkat cells): 2.97 ratio; Ratio of Top MFI (relative to ATG-Bis-40E9) (CD3 on Jurkat cells): 0.62 ratio; Ratio of EC50 (relative to ATG-Bis-40E9) (GPRC5D on MM.1S cells [4]): 0.913 ratio; Ratio of Top MFI (relative to ATG-Bis-40E9) (GPRC5D on MM.1S cells [4]): 0.972 ratio; Ratio of IC50 (relative to ATG-Bis-40E9), MM.1S cytotoxicity (GPRC5D on MM.1S cells [5]): 4.93 ratio; Ratio of Top cytotoxicity (relative to ATG-Bis-40E9), MM.1S cytotoxicity (GPRC5D on MM.1S cells [5]): 0.98 ratio; Ratio of EC50 (relative to ATG-Bis-40E9), luciferase assay on MM.1S (GPRC5D on MM.1S cells [6]): 6.02 ratio; Ratio of Top RLU (relative to ATG-Bis-40E9), luciferase assay on MM.1S (GPRC5D on MM.1S cells [6]): 0.84 ratio
3 | B3 |  |  |  |  |  |  |  |  |  |  |  |  |  |  |  | Ratio of EC50 (relative to ATG-Bis-40E9) (CD3 on Jurkat cells): 2.31 ratio; Ratio of Top MFI (relative to ATG-Bis-40E9) (CD3 on Jurkat cells): 0.83 ratio; Ratio of EC50 (relative to ATG-Bis-40E9) (GPRC5D on MM.1S cells [4]): 1.02 ratio; Ratio of Top MFI (relative to ATG-Bis-40E9) (GPRC5D on MM.1S cells [4]): 0.975 ratio; Ratio of IC50 (relative to ATG-Bis-40E9), MM.1S cytotoxicity (GPRC5D on MM.1S cells [5]): 10.4 ratio; Ratio of Top cytotoxicity (relative to ATG-Bis-40E9), MM.1S cytotoxicity (GPRC5D on MM.1S cells [5]): 0.98 ratio; Ratio of EC50 (relative to ATG-Bis-40E9), luciferase assay on MM.1S (GPRC5D on MM.1S cells [6]): 5.77 ratio; Ratio of Top RLU (relative to ATG-Bis-40E9), luciferase assay on MM.1S (GPRC5D on MM.1S cells [6]): 0.81 ratio
4 | B4 | 0.0437 | 0.0069 | 0.356 | 56.3 | 58.3 | 25.9 | 113 | 0.18 | 2510 | 1190 | 0.258 | 0.00654 | 1.05 | 898 | 261 | 
5 | B5 | 0.0125 | 0.00239 | 0.381 | 69 | 63.9 | 20.4 | 328 | 0.0592 | 1700 | 213 | 0.206 | 0.000513 |  | 1430 |  | 
6 | B6 | 0.057 | 0.0068 | 4.04 | 67.4 | 54.3 | 5.69 | 114 | 0.268 | 2910 | 262 | 0.187 | 0.116 | 1.58 | 277 | 101 | 
7 | B7 | 0.0244 | 0.00776 | 0.406 | 57.2 | 68.7 | 13.4 | 128 | 0.0719 | 1720 | 118 | 0.19 | 0.906 | 0.878 | 584 | 113 | 

Source: patent publication US20260193348A1 (ANTENGENE BIOLOGICS, published 2026)
